Where a chain is given by its changes, count along the chain named.
T1: human AMHRII (anti-Mullerian hormone receptor type 2) (human, UniProt Q16671 18-573)
T1 construct: whole, on cells; also called AMHR2; human AMHR2
T1 sequence (looked up): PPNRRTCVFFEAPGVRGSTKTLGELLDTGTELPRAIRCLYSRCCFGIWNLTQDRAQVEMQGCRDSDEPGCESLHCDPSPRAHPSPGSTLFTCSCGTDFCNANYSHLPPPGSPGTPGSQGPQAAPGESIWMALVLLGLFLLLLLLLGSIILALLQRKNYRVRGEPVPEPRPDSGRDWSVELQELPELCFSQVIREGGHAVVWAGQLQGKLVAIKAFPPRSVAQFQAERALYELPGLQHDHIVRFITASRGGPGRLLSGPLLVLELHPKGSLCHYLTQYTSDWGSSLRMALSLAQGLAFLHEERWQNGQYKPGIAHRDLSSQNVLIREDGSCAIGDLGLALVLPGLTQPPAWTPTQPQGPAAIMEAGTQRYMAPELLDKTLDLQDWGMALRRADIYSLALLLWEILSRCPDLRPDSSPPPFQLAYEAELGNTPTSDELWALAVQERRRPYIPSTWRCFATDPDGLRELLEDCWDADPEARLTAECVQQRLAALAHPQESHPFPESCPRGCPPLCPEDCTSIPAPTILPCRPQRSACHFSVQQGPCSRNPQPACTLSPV

B1: xi94C4C3 hIgG1 (antibody, V domains shown)
VH: DVQLQESGPGLVKPSQSLSLTCTVTGYSITSDYAWNWIRQFPGNKLEWMGYISYSGSISYNPSLKSRISITRDTSKNQFFLQLNSVTTEDTATYYCARSRYSWFDYWGQGTLVTVSA
VL: DIVLTQSPTSLAVSLGQRATLSCSASESVDTYGNSFMHWYQQKPGQPPKLLIYRASSLESGIPVRFSGSGSRTDFTLTINPVEAADVATYYCQQSNEDPYTFGGGTKLEIK
notes: Murine variable domains in human chimeric format, human IgG1; also called xi94C4C3 hlgG1; 94C4C3 (chimeric)
B2: xi108F3D1E9 hIgG1 (antibody, V domains shown)
VH: B1 VH with Y33F, S53N, Y54F, I58T, R98G, D105A
VL: B1 VL with T9A, L21I, S24R, S57N, V64A, A85D
notes: Murine variable domains in human chimeric format, human IgG1; also called xi108F3D1E9 hlgG1; 108F3D1E9 (chimeric)
B3: 31D9B3 H1L2 hIgG1 (antibody, V domains shown)
VH: QVQLVQSGAEVKKPGASVKVSCKASGYTFTDYWVSWVRQAPGQGLEWMGEIYPKNGVSNFNEKFKGRVTMTTDTSTSTAYMELRSLRSDDTAVYYCARQRDYWGQGTLVTVSS
VL: DVVMTQSPLSLPVTLGQPASISCRSSQSLEYGDGYTYLEWYLQRPGQSPRLLIYGVSNRFSGVPDRFSGSGSGTDFTLKISRVEAEDVGVYYCFQATHDPNTFGQGTKLEIK
notes: Humanized, human IgG1; also called 31D9B3 H1L2 hlgG1; 31D9B3 VH1-VL2 hlgG1
B4: 31D9B3 H2L4 hIgG1 (antibody, V domains shown)
VH: B3 VH with K12V, M48I, T72V, A97T
VL: B3 VL with M4L, R50Q, S68I, A85P, Q105A
notes: Humanized, human IgG1; also called 31D9B3 H2L4 hlgG1
B5: 31D9B3 H2L1 hIgG1 (antibody, V domains shown)
VH: B3 VH with K12V, M48I, T72V, A97T
VL: B3 VL with Y41F, L42Q, L51R
notes: Humanized, human IgG1; also called 31D9B3 H2L1 hlgG1
B6: 31D9B3 H1L3 hIgG1 (antibody, V domains shown)
VH: B3 VH
VL: B3 VL with S68I, Q105A
notes: Humanized, human IgG1; also called 31D9B3 H1L3 hlgG1
B7: 31D9B3 H2L3 hIgG1 (antibody, V domains shown)
VH: B3 VH with K12V, M48I, T72V, A97T
VL: B3 VL with S68I, Q105A
notes: Humanized, human IgG1; also called 31D9B3 H2L3 hlgG1
B8: 31D9B3 H2L2 hIgG1 (antibody, V domains shown)
VH: B3 VH with K12V, M48I, T72V, A97T
VL: B3 VL
notes: Humanized, human IgG1; also called 31D9B3 H2L2 hlgG1
B9: 31D9B3 H1L4 hIgG1 (antibody, V domains shown)
VH: B3 VH
VL: B3 VL with M4L, R50Q, S68I, A85P, Q105A
notes: Humanized, human IgG1; also called 31D9B3 H1L4 hlgG1
B10: xi103C5G10F9 hIgG1 (antibody, V domains shown)
VH: B1 VH with I58T
VL: B1 VL with P47S, V64A
notes: Murine variable domains in human chimeric format, human IgG1; also called 103C5G10F9 (chimeric)
B11: xi114A2B5 hIgG1 (antibody, V domains shown)
VH: B1 VH with I58T
VL: B1 VL with T9A, S24R, P47S, V64A
notes: Murine variable domains in human chimeric format, human IgG1; also called 114A2B5 (chimeric)
B12: xi35D4G3 hIgG1 (antibody, V domains shown)
VH: QVRLLQSGAALVKPGASAKMSCKASGYTFTDYWVSWVKQSHGKSLEWIGEIYPDNGITNFNEKFKGKATLTVDKSTRTAYMELSRLTSEDSAIYYCTRQRDYWGQGVMVTVSS
VL: DVVLTQTPGSLSVTLGDQVSISCRSSQSLKYGDGYTYLEWYLQKPGQSPQLLFYGVSNRFSGVPDRFIGSGSGTDFTLKISRVEPEDLGVYYCFQATHDPNTFGTGTKLDLK
notes: Murine variable domains in human chimeric format, human IgG1; also called 35D4G3 (chimeric)
B13: 31D9B3 H4L3 hIgG1 (antibody, V domains shown)
VH: QVQLVQSGAEVVKPGASVKMSCKASGYTFTDYWVSWVKQSPGQGLEWIGEIYPKNGVSNFNEKFKGKATLTVDKSTSTAYMELRRLRSDDTAVFYCTRQRDYWGQGVLVTVSS
VL: B3 VL with S68I, Q105A
notes: Humanized, human IgG1; also called 31D9B3 H4L3 hlgG1
B14: 31D9B3 H4L2 hIgG1 (antibody, V domains shown)
VH: B13 VH
VL: B3 VL
notes: Humanized, human IgG1; also called 31D9B3 H4L2 hlgG1
B15: 31D9B3 H3L4 hIgG1 (antibody, V domains shown)
VH: B13 VH with V12K, K13V, K38R, K67R, A68V, R85S, F94Y
VL: B3 VL with M4L, R50Q, S68I, A85P, Q105A
notes: Humanized, human IgG1; also called 31D9B3 H3L4 hlgG1
B16: 31D9B3 H4L4 hIgG1 (antibody, V domains shown)
VH: B13 VH
VL: B3 VL with M4L, R50Q, S68I, A85P, Q105A
notes: Humanized, human IgG1; also called 31D9B3 H4L4 hlgG1
B17: 31D9B3 H4L1 hIgG1 (antibody, V domains shown)
VH: B13 VH
VL: B3 VL with Y41F, L42Q, L51R
notes: Humanized, human IgG1; also called 31D9B3 H4L1 hlgG1
B18: 31D9B3 H3L1 hIgG1 (antibody, V domains shown)
VH: B13 VH with V12K, K13V, K38R, K67R, A68V, R85S, F94Y
VL: B3 VL with Y41F, L42Q, L51R
notes: Humanized, human IgG1; also called 31D9B3 H3L1 hlgG1
B19: 31D9B3 H3L3 hIgG1 (antibody, V domains shown)
VH: B13 VH with V12K, K13V, K38R, K67R, A68V, R85S, F94Y
VL: B3 VL with S68I, Q105A
notes: Humanized, human IgG1; also called 31D9B3 H3L3 hlgG1
B20: 31D9B3 H3L2 hIgG1 (antibody, V domains shown)
VH: B13 VH with V12K, K13V, K38R, K67R, A68V, R85S, F94Y
VL: B3 VL
notes: Humanized, human IgG1; also called 31D9B3 H3L2 hlgG1

The binders below were run against T1, human AMHRII (anti-Mullerian hormone …) (assay: FACS on CHO-K1 cells over-expressing human AMHR2).
Procedure: (§1) CHO-K1 cells over-expressed AMHR2 were harvested from flasks. 100 μl of 1×10⁶ cells/ml of cells were incubated with the humanized antibodies in 3-fold serial dilutions starting from 300 nM to 0.001 nM for 30 minutes on ice. After being washed with 200 μl of FACS buffer twice, cells were incubated with secondary antibody for 30 minutes on ice. Cells were washed with 200 μl of FACS buffer twice and analyzed by FACS.

| EC50 [nM] | Top (MFI) | Binder |
| --- | --- | --- |
| 1.21 | 54900 | B1 |
| 1.05 | 74400 | B2 |
| 1.06 | 26700 | B3 |

Molecular target: T1, human AMHRII (anti-Mullerian hormone …)
Assay: FACS on CHO-K1 cells over-expressing human AMHR2
Remark: another data set of the same source
Procedure: as §1

| EC50 [nM] | Top (MFI) | Binder |
| --- | --- | --- |
| 1.49 | 36200 | B3 |
| 1.67 | 39200 | B4 |
| 22.5 | 19100 | B5 |
| 1.36 | 34700 | B6 |
| 1.28 | 36700 | B7 |
| 1.58 | 37900 | B8 |
| 1.42 | 34100 | B9 |

Molecular target: T1, human AMHRII (anti-Mullerian hormone …)
Assay: FACS on CHO-K1 cells over-expressing human AMHR2
Remark: another data set of the same source
Procedure: as §1

| EC50 [nM] | Top (MFI) | Binder |
| --- | --- | --- |
| 1.21 | 54900 | B1 |

Each binder was assayed against T1, human AMHRII (anti-Mullerian hormone …) (assay: cell-based or functional assay).

| ADCC reporter bioassay, EC50 [nM] | ADCC reporter bioassay, Top (MFI) | Binder |
| --- | --- | --- |
| 0.39 | 13900 | B10 |
| 0.35 | 13100 | B1 |
| 0.19 | 13300 | B2 |
| 0.34 | 14100 | B11 |
| 0.25 | 14500 | B12 |

These binders were tested against T1, human AMHRII (anti-Mullerian hormone …) (assay: FACS on Rko cells over-expressing human AMHR2).
Procedure: Similarly, the binding of these antibodies was tested with Rko cells that over-expressed AMHR2. 100 μl of 1×10⁶ cells/ml of cells were incubated with the antibodies in 3-fold serial dilutions starting from 300 nM to 0.002 nM for 30 minutes on ice. After being washed with 200 μl of FACS buffer twice, cells were incubated with secondary antibody for 30 minutes on ice. Cells were washed with 200 μl of FACS buffer twice and analyzed by FACS.

| EC50 [nM] | Top (MFI) | Binder |
| --- | --- | --- |
| 0.43 | 8580 | B10 |
| 0.56 | 8380 | B1 |
| 0.47 | 8190 | B2 |
| 0.52 | 8330 | B11 |
| 0.49 | 8290 | B12 |

Molecular target: T1, human AMHRII (anti-Mullerian hormone …)
Assay: FACS on CHO-K1 cells over-expressing human AMHR2
Remark: another data set of the same source
Procedure: as §1

| EC50 [nM] | Top (MFI) | Binder |
| --- | --- | --- |
| 1.05 | 74400 | B2 |

Molecular target: T1, human AMHRII (anti-Mullerian hormone …)
Assay: FACS on Rko cells over-expressing human AMHR2
Remark: another data set of the same source
Procedure: as §1, with “Rko” for “CHO-K1”, “over-expressing” for “over-expressed”, “primary PTM” for “the humanized”

| EC50 [nM] | Top (MFI) | Binder |
| --- | --- | --- |
| 0.627 | 19000 | B1 |
| 0.756 | 18700 | B2 |
| 1.21 | 18300 | B3 |

Molecular target: T1, human AMHRII (anti-Mullerian hormone …)
Assay: FACS on CHO-K1 cells over-expressing human AMHR2
Remark: another data set of the same source
Procedure: CHO-K1 cells that over-expressed AMHR2 were harvested from flasks. 100 μl of 1×10⁶ cells/ml of cells were incubated with primary chimeric antibodies (or with positive reference antibody Ref.Ab) in 3-fold serial dilutions starting from 300 nM to 0.002 nM for 30 minutes on ice. After being washed with 200 μl of FACS buffer twice, cells were incubated with secondary antibody for 30 minutes on ice. Cells were washed with 200 μl of FACS buffer twice and analyzed by FACS.

| EC50 [nM] | Top (MFI) | Binder |
| --- | --- | --- |
| 1.08 | 124000 | B10 |
| 1.17 | 124000 | B1 |
| 1.37 | 124000 | B2 |
| 1.04 | 127000 | B11 |
| 0.11 | 114000 | B12 |

Molecular target: T1, human AMHRII (anti-Mullerian hormone …)
Assay: FACS on CHO-K1 cells over-expressing human AMHR2
Remark: another data set of the same source
Procedure: as §1

| EC50 [nM] | Top (MFI) | Binder |
| --- | --- | --- |
| 0.83 | 36000 | B13 |
| 0.84 | 36200 | B14 |
| 1.01 | 36400 | B15 |
| 0.75 | 37200 | B16 |
| 2.18 | 16100 | B17 |
| 3.01 | 19600 | B18 |
| 1.3 | 38000 | B19 |
| 1.05 | 37900 | B20 |
